Target: T1, human FSH receptor, stably expressed on CHO K1 cells (CHO FSH-R/CRE-luc cell line) (human, UniProt P23945 18-695)
T1 sequence (looked up): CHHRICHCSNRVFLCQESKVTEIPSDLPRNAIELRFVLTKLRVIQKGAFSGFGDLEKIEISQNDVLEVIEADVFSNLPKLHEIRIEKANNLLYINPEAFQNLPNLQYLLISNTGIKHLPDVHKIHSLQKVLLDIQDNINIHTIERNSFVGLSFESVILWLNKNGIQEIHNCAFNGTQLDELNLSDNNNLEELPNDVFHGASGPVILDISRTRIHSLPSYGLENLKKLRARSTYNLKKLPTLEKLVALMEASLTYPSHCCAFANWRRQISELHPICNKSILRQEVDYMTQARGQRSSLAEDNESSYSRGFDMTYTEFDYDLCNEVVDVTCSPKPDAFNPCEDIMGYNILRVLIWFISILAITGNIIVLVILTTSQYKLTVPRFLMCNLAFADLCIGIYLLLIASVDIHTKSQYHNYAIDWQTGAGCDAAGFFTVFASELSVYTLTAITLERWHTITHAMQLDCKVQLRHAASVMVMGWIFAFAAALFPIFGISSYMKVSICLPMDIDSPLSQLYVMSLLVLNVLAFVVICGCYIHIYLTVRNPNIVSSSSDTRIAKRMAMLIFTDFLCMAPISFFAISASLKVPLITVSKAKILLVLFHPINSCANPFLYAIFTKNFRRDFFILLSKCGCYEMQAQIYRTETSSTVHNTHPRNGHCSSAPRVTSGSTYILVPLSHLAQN
Test: cell-based or functional assay

B1: FSH1208: variant form of FSH containing two N-linked glycosylations at the N-terminus of the alpha subunit (ligand)
chain 1: not shown
chain 2: CELTNITIAIEKEECRFCISINTTWCAGYCYTRDLVYKDPARPKIQKTCTFKELVYETVRVPGCAHHADSLYTYPVATQCHCGKCDSDSTDCTVRGLGPSYCSFGEMKE
modifications: both asparagine residues of the extension … are glycosylated
specific activity (in vitro bioactivity in the FSH luciferase assay over FSH content by ELISA), relative to the wildtype reference: ~0.33 fold of wildtype FSH

From patent US20030036181A1 (MAXYGEN, published 2003)
